# According to article PMC2139813 (The Journal of Cell Biology, 1997):
# B1: human moesin N-ERMAD (amino acids 1–296) (domain or fragment, UniProt P26038 1-296, looked up)
# chain: MPKTISVRVTTMDAELEFAIQPNTTGKQLFDQVVKTIGLREVWFFGLQYQDTKGFSTWLKLNKKVTAQDVRKESPLLFKFRAKFYPEDVSEELIQDITQRLFFLQVKEGILNDDIYCPPETAVLLASYAVQSKYGDFNKEVHKSGYLAGDKLLPQRVLEQHKLNKDQWEERIQVWHEEHRGMLREDAVLEYLKIAQDLEMYGVNYFSIKNKKGSELWLGVDALGLNIYEQNDRLTPKIGFPWSEIRNISFNDKKFVIKPIDKKAPDFVFYAPRLRINKRILALCMGNHELYMRRRK
# modifications: biotin (only where used as probe in blot overlays; site not stated)
# Biological target: human placental moesin (human, UniProt P26038 1-577)
# Test: far-Western, overlay or dot blot
binder,measurement,value
B1,binding result,binds
